Columns and labels:
Her3/Avi/His10 receptor [1] = target: T1, Her3/Avi/His10 receptor (Homo sapiens (Human), UniProt P21860 20-643, limits assumed); assay: AlphaScreen ligand blocking: antibody titrated against 10 nM biotinylated NRG-1 beta and 10 nM Her3/Avi/His10, % signal
T1 construct: Soluble tagged receptor of the AlphaScreen assay; The antibodies are called anti-hHer3 there; not shown: Avi tag; His10 tag (ten histidines by its name)
Method: (§1) SDI or Genovac purified anti-hHer3 Mabs were serially diluted two-fold into an assay buffer made from 25 mM Hepes, 100 mM NaCl, 0.5% BSA and 0.05% Tween20 in an opaque/white, half-well area plate (Costar). Mouse IgG1 antibody was used as a negative control (Southern Biotech; cat #010201). Biotinylated NRG-1 beta ligand and Her3/Avi/His₁₀ receptor were added sequentially at 10 nM concentration to the assay plate containing serially diluted antibodies. This mixture of receptor, ligand and the antibodies was incubated at room temperature with gentle shaking for 90 minutes. AlphaScreen Streptavidin Donor beads and His-Nickel chelate Acceptor beads were added into the assay at a final concentration of 20 μg/ml each. The light sensitive beads were handled under chromagreen filtered light. The assay plates were covered with foil and incubated at room temperature with gentle shaking for 1 hour. The plates were read in PE EnVision plate reader equipped with an Alpha module (dedicated laser for excitation and designed to measure the signal above the well). Table 7 listed IC₅₀ values in ligand blocking that were estimated using four parameter curve fitting with concentration titration graphs (FIGS. 7 A&B).

[2] = target: T2, EGFR on CHO cells (CHO-EGFR) (UniProt P00533 25-1210, limits assumed); assay: FACS on CHO-EGFR cells, purified IgG, R-PE anti-mouse IgG
T2 construct: whole, on cells
Method: (§2) CHO-Her2, CHO-Her4, CHO-EGFR cells were harvested and resuspended in PBS, 2% FBS at a concentration of approximately 1×10⁶/ml. Cells were stained with purified IgGs at 4° C. for 40 min. Cells were washed with 4 mL PBS, 2% FBS, then centrifuged at 1200 rpm for 10 minutes. Supernatant was removed. Cells were stained with R-PE conjugated anti-mouse IgG at 4° C. for 30 min. Cells were washed with 4 mL PBS, 2% FBS, then centrifuged at 1200 rpm for 10 minutes. Supernatant was removed and cell pellets were fixed in 1% formaldehyde. Cells were analyzed on a FACS Calibur (BD Biosciences) by collecting 20,000 events from gate 1.

[3] = target: T3, human Her3 receptor on cells (T47D, MCF7) (human, UniProt P21860 20-1342); assay: cell-based or functional assay
T3 sequence (P21860 20-1342 limits assumed, stated change not applied): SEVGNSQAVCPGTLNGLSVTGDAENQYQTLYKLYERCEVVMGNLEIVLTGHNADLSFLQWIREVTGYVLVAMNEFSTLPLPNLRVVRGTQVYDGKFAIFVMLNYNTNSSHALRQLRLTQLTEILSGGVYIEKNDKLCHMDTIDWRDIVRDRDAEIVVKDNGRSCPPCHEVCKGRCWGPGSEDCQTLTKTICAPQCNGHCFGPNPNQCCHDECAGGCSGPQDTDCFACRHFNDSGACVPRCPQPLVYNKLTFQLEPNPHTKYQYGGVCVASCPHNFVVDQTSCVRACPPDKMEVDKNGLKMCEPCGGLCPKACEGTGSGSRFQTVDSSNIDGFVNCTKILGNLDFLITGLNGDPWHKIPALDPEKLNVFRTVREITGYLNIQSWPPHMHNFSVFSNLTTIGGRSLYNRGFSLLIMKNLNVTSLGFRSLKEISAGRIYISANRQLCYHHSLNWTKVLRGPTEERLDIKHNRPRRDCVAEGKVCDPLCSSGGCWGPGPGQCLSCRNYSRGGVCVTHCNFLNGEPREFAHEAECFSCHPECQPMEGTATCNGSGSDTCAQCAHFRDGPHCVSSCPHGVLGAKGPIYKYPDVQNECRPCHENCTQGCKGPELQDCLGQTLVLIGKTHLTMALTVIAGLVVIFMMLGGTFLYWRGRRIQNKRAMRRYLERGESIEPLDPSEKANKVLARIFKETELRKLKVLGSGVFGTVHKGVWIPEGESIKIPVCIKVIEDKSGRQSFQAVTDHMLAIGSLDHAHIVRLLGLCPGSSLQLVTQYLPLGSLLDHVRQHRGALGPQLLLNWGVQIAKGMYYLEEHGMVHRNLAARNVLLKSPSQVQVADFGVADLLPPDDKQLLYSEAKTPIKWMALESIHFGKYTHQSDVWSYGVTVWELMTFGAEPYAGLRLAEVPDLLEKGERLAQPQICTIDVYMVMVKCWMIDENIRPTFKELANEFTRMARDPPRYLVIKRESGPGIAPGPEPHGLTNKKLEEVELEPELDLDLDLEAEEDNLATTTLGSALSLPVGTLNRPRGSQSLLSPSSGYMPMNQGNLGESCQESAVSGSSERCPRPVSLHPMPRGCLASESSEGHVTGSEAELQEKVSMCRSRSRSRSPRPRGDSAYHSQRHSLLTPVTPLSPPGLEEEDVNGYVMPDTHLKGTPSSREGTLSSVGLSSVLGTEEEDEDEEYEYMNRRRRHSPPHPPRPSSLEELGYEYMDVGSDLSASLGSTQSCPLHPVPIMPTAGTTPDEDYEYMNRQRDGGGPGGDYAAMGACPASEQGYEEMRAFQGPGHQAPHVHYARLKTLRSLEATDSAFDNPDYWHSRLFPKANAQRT

[4] = target: T4, Recombinant Human Her3 (Her3/ErbB3 extracellular domain) (human, UniProt P21860 20-643); assay: SPR (BIAcore), Mab captured by anti-IgG Fc on CM5 chip, recombinant human Her3 as analyte, 25 °C
T4 construct: Analyte of the BIAcore assay; also called Her3 ECD; human Her3/ErbB3 extracellular domain
T4 sequence (P21860 20-643 limits assumed): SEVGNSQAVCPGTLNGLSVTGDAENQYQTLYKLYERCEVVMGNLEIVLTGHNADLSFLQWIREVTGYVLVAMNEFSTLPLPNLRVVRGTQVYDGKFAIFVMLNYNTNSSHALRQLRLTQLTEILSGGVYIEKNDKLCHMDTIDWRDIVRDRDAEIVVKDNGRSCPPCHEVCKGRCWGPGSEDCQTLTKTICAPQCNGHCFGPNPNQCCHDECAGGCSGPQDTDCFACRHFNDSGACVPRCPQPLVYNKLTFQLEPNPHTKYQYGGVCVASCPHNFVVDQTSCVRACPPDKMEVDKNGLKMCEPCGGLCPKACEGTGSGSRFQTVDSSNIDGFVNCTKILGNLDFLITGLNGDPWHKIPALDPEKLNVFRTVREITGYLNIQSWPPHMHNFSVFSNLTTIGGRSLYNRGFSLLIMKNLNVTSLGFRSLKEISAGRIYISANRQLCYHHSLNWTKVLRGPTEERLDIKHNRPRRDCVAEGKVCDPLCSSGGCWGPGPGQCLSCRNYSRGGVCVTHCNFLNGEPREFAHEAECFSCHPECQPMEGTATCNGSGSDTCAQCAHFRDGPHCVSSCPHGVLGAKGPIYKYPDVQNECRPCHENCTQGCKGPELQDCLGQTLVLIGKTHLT
Method: All experiments were performed at 25° C. at a flow rate of 40 μl/min. To prepare a BIAcore assay, an anti-human IgG-Fc antibody (50 μg/ml each in acetate buffer, pH 5.0) was immobilized onto a carboxymethyl dextran sensorchip (CM5) using amine coupling procedures as described by the manufacturer. 10000 resonance units (RU) of anti-mouse IgG Fc antibodies were linked respectively onto Flowcells (FC) 1 and 2. Purified Mabs to be tested were diluted at a concentration of 5 μg/ml in 0.5% P20, HBS-EP buffer and injected on FC2 to reach 500 to 1000 RU. FC1 was used as the reference cell. Specific signals correspond to the difference of signals obtained on FC2 versus FC1. The analyte (Recombinant Human Her3, apparent molecular weight 97 kDa) was injected during 90 sec at 5 different concentrations (100, 50, 25, 12.5 and 6.25 nM) in 0.5% P20, HBS-EP buffer. These concentrations were prepared from stock solution in 0.5% P20, HBS-EP. The dissociation phase of the analyte was monitored over a 10 minutes period. Running buffer was also injected under the same conditions as a double reference. After each cycle (antibody+Her3 injection), both Flowcells were regenerated by injecting 20 to 45 μl of Glycine-HCl buffer pH 1.5. This regeneration is sufficient to eliminate all Mabs and Mabs/Her3 complexes captured on the sensorchip. Table 1 listed binding KD for Her3 binding monoclonal antibodies.

[5] = target: T5, Her4 on CHO cells (CHO-Her4) (UniProt Q15303 26-1308, limits assumed); assay: FACS on CHO-Her4 cells, purified IgG, R-PE anti-mouse IgG
T5 construct: whole, on cells
T5 sequence (Q15303 26-1308 limits assumed): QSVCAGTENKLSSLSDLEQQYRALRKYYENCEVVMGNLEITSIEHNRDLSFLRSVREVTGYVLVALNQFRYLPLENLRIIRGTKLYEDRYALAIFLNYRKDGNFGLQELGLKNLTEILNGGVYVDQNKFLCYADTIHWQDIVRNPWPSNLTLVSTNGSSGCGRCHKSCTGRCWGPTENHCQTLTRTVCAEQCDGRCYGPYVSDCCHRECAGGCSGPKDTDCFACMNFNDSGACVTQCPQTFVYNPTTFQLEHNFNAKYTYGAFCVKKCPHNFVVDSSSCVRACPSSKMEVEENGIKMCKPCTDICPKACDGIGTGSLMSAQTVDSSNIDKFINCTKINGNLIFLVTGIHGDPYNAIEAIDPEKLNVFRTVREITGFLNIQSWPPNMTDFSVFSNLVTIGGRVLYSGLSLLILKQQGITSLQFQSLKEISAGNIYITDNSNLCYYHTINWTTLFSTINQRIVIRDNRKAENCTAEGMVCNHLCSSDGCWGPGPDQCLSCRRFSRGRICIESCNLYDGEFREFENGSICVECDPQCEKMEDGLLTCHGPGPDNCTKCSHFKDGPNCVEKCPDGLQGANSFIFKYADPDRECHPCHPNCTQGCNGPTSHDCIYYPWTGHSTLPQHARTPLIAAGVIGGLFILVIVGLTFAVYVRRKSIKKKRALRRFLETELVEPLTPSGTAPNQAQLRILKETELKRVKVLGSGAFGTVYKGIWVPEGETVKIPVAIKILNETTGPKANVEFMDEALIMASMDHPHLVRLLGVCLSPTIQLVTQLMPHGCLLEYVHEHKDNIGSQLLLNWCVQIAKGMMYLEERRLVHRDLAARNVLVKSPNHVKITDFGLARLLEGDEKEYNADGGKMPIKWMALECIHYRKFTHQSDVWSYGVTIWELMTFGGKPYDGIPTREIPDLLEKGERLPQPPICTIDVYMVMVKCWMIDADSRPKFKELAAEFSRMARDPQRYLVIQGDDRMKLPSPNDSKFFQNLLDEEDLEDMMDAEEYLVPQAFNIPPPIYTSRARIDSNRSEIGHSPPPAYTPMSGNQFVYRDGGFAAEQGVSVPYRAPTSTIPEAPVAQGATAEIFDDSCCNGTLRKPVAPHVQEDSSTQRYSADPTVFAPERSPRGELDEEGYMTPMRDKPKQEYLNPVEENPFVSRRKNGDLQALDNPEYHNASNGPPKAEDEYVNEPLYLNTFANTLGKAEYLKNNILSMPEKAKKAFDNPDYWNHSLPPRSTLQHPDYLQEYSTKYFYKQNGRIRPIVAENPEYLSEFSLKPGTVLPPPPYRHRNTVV
Method: as §2

Her3/Avi/His10 receptor [6] = target: T1, Her3/Avi/His10 receptor; assay: AlphaScreen competition; antibody titrated against 10 nM biotinylated NRG-1 beta and 10 nM Her3/Avi/His10; n = 3
Method: as §1

[7] = target: T3, human Her3 receptor on cells (T47D, …); assay: cell-based or functional assay; remark: listed apart in the source
[8] = target: T3, human Her3 receptor on cells (T47D, …); assay: cell-based or functional assay; remark: listed apart in the source
mouse HER3/ErbB3 = target: T6, mouse HER3/ErbB3 (mouse, UniProt Q61526); assay: FACS, purified IgG on CHO cells expressing mouse Her3, R-PE anti-mouse IgG
T6 construct: receptor expressed on CHO cells; also called mouse Her3 receptor on CHO cells
T6 sequence (Q61526 20-1339 limits assumed): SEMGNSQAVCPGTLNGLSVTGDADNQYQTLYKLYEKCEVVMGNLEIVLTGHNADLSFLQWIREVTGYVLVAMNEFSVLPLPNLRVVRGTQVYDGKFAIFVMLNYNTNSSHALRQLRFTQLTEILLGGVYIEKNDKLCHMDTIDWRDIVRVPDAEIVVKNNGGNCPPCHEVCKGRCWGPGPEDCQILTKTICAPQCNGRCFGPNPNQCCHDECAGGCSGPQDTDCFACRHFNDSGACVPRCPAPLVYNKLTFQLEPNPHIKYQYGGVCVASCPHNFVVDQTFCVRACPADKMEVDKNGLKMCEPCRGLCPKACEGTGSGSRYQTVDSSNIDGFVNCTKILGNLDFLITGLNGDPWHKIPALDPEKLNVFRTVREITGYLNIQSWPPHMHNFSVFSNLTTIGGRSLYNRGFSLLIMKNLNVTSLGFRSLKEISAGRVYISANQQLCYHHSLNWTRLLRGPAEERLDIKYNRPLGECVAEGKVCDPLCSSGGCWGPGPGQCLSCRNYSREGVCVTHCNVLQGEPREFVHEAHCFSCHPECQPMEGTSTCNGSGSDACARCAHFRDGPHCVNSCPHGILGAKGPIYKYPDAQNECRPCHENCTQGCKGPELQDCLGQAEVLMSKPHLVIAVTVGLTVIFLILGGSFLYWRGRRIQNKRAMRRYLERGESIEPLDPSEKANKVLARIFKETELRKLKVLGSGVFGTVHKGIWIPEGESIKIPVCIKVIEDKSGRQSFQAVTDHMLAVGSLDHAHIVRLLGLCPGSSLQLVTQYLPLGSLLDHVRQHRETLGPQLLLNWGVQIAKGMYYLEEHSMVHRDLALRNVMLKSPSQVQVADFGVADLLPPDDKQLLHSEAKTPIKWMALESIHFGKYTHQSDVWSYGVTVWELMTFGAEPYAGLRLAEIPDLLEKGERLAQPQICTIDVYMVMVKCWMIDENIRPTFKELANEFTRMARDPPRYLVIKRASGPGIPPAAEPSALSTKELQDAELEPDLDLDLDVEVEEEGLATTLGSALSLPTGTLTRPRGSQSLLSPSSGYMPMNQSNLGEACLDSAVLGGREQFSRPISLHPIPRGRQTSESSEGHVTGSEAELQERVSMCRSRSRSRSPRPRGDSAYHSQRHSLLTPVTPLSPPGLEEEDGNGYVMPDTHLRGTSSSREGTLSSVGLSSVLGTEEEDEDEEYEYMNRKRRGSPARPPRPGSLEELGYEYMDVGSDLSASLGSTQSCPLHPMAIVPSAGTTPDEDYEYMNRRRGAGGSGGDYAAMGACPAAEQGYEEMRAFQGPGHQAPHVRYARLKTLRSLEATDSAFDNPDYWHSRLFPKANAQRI
Method: as §2, with “CHO cell lines expressing human or mouse Her3 receptors were used to study species-cross reactivity. Cells” for “CHO-Her2, CHO-Her4, CHO-EGFR cells”

[9] = target: T7, Her2 on CHO cells (CHO-Her2) (UniProt P04626 23-1255, limits assumed); assay: FACS on CHO-Her2 cells, purified IgG, R-PE anti-mouse IgG
T7 construct: whole, on cells
Method: as §2

T1 sequence (P21860 20-643 limits assumed): as the sequence (P21860 20-643 limits assumed) above

- IC50 (Her3/Avi/His10 receptor [1]): 11 nM
- binding result [2]: no binding
- IC50 of inhibition of pHer3 (MCF7 cells stimulated with rhNRG1-β1, ELISA) [3]: 4.98 nM
- Kd [4]: 1.6 nM
- binding result [5]: no binding
- IC50 (Her3/Avi/His10 receptor [6]): 12.7 nM
- IC50 of pAKT inhibition (MCF7 cells stimulated with rhNRG1-β1, ELISA) [7]: 45.2 nM
- % Receptor Internalization (T47D cells, FACS) [8]: 14%
- binding result (mouse HER3/ErbB3): binds
- binding result [9]: no binding
B1: PO-3H7-E3 (antibody, V domains shown)
VH: EVQLQQSGAELVKPGASVKISCKASGYSFTGYYMNWVKQSHGKSLEWIGNINPYYGGSNYNQKFKARATLTVDKSSSTAYMQLNSLTSEDSAVYYCARKGDLYYSMDYWGQGTSVTVSS
VL: DIVMTQTPLSLPVSLGDQASISCRSSQSIVHSNGNTYLEWYLQKPGQSPKLLIYKVSNRFSGVPDRFSGSGSGTDFTLKISRVEAEDLGIYYCFQGSHVPPTFGGGTKLELKR
notes: Purified mouse IgG from a hybridoma; also called PO-3H7-E3-HC; PO-3H7-E3-LC
